# Results taken from the DeepSol protein solubility set.
# Test: soluble on expression in E. coli; label from the status in PepcDB or PDB records
row,Sequence,soluble on expression in E. coli
1,MGSDKIHHHHHHMTNENELLYSSELQLSALNEAIEATPDNPYLYFKRATYFYNINNFRIAQNDIQKALRMDESVAAYWLLSAQINNELKNVDRAIEEGQKALQLGNAEPILYALLANCLLEKNDTISANQYIGKLTAIAPQMAELKYVQAKKLLIGKDTSHSFLKFRECIQNNPQYIEAYIDLMSLYYKKQMYDSIMPLLIKAKRMRPNNPTLFLYEGKFYETINKNQVALAAYKEGLLCDPQAIELYKPLSDYYGRQGNYKESMYYLSKWIEKNSSDAQSIIKMGNYALKQNDEAGAVTYYKNSLSIDSSNTYLKKEIERIEKHIRYVAQDTTN,not soluble
2,SLNRESERDVIKVGIIGDFTGICSELERGKVAAYKLAADEINRMGGINEKKVELLFRDDRSLSELTREAVKELTEEERVDVLMGSTLSPSREIMQHYADQTKTLYLDTQQTEGGVSSHYTFCLSAMPEQQMTQMLAYLLQKYGRKCYVVAADYNYGILSAEWVKYLVHQLGGEIVGVEYLDDRITDFNPLIDRILQLEADILFSICVFPNHDAFYLQWHQRGLNHIPNASTMVAAEAYQNVRFAPPVLENMYVMASFIEELNTPAAQRFVKKFRAAYDHREVPYMSMDTETVYTAMYVYKRAVELAGTTDTEEVITALESGAVYVDGPGGRVTVRGEDHHTSRSLSCFRINNQHRAEELFCTNPIHSDYIESMIEQTMGVKGGIKAMGANAPSTQYNMLLNKFRWHPSEG,soluble
3,MGSDKIHHHHHHMQIELANFEKIYTHFVGNKSDEEGITISKTPLQLNDESLKELLLNYFTHPFKNKEYNHFHHETDLNLNELYTYCSTIFADPDALYLQSINIAKHLYEQSKHPMIKGGELYVVHFNDCVIDGESTDAIGLFKSETKETFLKIFPQGDGYEAVSDKGIDIRKLDKGCFIINSEKENGYKVCVVDQTNKSSDAQYWKDDFLKIVSRNDSFHYTQNYMNMCKSFVTDQMPETFEVSKTDQIDLLNRSVNYFKKNESFDMQAFTNDVIQDEGLIDSFKEYKNKFQEDHQMPMVDEFEISTPAVKKYAKVFKSVLKLDRNFHIYIHGDKDLIERGRDDASGMNFYKIYYKEES,not soluble
4,DVTGLATGFRDLDKITTGLHPDQLIILAARPAVGKTAFVLNIAQNVGTKMNRPVAIFSLEMGAESLVDRMLASEGMVDAHNLRTGQLTEQDWQNITLAQGTLADAPIYIDDTPGIKVTEIRARARKLDQELEKGLGLIVIDYLQLITGTRPENRQQEVSDISRQLKILAKELGVPVIALSQLSRGVEQRQDKRPVLSDI,not soluble
5,PVIGSVAPESLAAQAGLEAGQELLAVDGEPVTGWNGVNLQLVRRLGESGTLEVRVQEKGSNVDSTHQVRLDGWLKGEDNPDPIASLGIRPWRPALPPVLAELDPKGPAQAAGLKLGDRLQSIDGIAVDDWQQVVDSVRARPGQRVQLKVLRDGEVLDVALELAVRGEGKARSGYMGAGVAGTEWPAEMLREVSYGPLEAVGQALSRTWTMSLLTLDSIKKMLLGELSVKNLSGPITIAKVAGASAQSGVGDFLNF,not soluble
6,GPLGSSYSMEQVEGITSEYIVKNADMFAVAVSLVSGKILYISNQVASIFHCKKDAFSDAKFVEFLAPHDVSVFHSYTTPYKLPPWSVCSGLDSFTQECMEEKSFFCRVSVGKHHENEIRYQPFRMTPYLVKVQEQQGAESQLCCLLLAERVHSGYEAPRIPPEKRIFTTTHTPNCLFQAVDERAVPLLGYLPQDLIETPVLVQLHPSDRPLMLAIHKKILQAGGQPFDYSPIRFRTRNGEYITLDTSWSSFINPWSRKISFIIGRHKVRVGPLNEDVFAAPPCPEEKTPHPSVQELTEQIHRLLMQPVP,soluble
7,RQRSLSTSGESLYHVLGLDKNATSDDIKKSYRKLALKYHPDKNPDNPEAADKFKEINNAHAILTDATKRNIYDKYGSLGLYVAEQFGEENVNTYFV,soluble
8,MAHHHHHHMQQSLKNQEHIWAVLQKMRMEMNECFAEHERMLRQAHGQLKERLDKIESAFVARNGGVGQLVGNSSSSLGHLDHATPVYTRFVSDKKGSPAGMRVTMLSTPPNERMQLMPPDSRGARSDVLPQPVDPTDWVALAAPSRQEATPAVSPHNRWTNDDSIHAEKTPSVDATCFEALNNLMNDDDFQHSTLESVIPSYTQDDDSKQLQSQPNLGTYTKKNDIIHMGAPGSSQTQHFTKSLKVTYMDGRPQAVPIPDGPPDEPDKLGIDVNAQCKVLVEFKRKRVLQFESKEYVPPGSYVMVGGDRGEDLGLVTYTWCETTKSLKGELGEFGNGSNKTVVLCVGLTGSTLTRSIGLGAGTVLRLADDSDVKQLHTVQVELERRAIDVCSQRVLERGLPMTIVDAEYQFDKKKLTFFYEAQQRMDFRELVRDLYKSFRARIWMELVEN,not soluble
9,MGSDKIHHHHHHMSESHLYTYGIIDDNESLALNVDGVAGATRAYTVSYRSLSAVVSDIETTDPERTDAAVEAHNTVLQAVLEHDATRAVVPMSFGMAFKNARTLKGVLRGARRALRSTLTEIAGTVELGVKVLAPGDDTAVDTAAVRSDVTARLSALSVGETENDCFTDRLIINKSYLVEHDTRDAFDAAIDEIDAAHDDLTVRYTGPWPPYNFVDIHIGAEQAQQGGR,not soluble
10,GPGSMWTTSMALMSKRSMKYQTKLRHRFRNPSVLPLKQTKAQRDETIRSVLQVRNINPANQSSYRYVEQRLYSTGSRLDREGVKLNTTYALQGLGDLEPLRNSKSFGFSEREALKYDSLQQAAKYEAPPVPFTPLAARKLAEGKLWPSAPEPDGMLSKEVPYLRHRANMSPSAQTFADKIAYHLRRSLKACPAHIAEQMDFAQLIIEEVIASRRSKLVYIVWATVDPAARFAMEPQLHRLNHWVQRLIMERIRTRPNIPQIAWVWNGGRLERELPRELKEEMQAYASDNSSTLEMRVRYLKEMDTVNQRMRNIPWFMPYLWSKEEKAGKTRRMRKDLEEYEQRRLAAKKDQRESERDMSGRSVAPQIGAPPAYVR,not soluble
11,MKQEFTRIAVKVGSNVLARRDGTLDVTRMSALVDQIAELNKSGVEIILISSGAVASGRSEIHPQKKLDSVDQRQLFSAVGQAKLINRYYELFREHGIAVGQVLTTKENFSTRRHYLNQKNCMTVMLENGVIPIVNENDTISVSELMFTDNDELSGLIASMMDAQALIILSNIDGIYNGSPSDPASAVIREIEHGKDLSNYIQATKSSFGRGGMLTKTNIARKVADEGITVIIANGKRDNILVDLLQQPDDTVCTRFIPSTEAVSSVKKWIAHSEGFAKGEIHINECATDILSSEKAASILPVGITHIEGEFEKDDIVRIMDFLGNQVGVGKANCDSAQAREAMGKHGKKPVVHYDYLYIE,not soluble
12,MKLFRVVKRGYYISYAILDNSTIIRLDEDPIKALMRYSENKEVLGDRVTGIDYQSLLKSFQINDIRITKPIDPPEVWGSGISYEMARERYSEENVAKILGKTIYEKVYDAVRPEIFFKATPNRCVGHGEAIAVRSDSEWTLPEPELAVVLDSNGKILGYTIMDDVSARDLEAENPLYLPQSKIYAGCCAFGPVIVTSDEIKNPYSLDITLKIVREGRVFFEGSVNTNKMRRKIEEQIQYLIRDNPIPDGTILTTGTAIVPGRDKGLKDEDIVEITISNIGTLITPVKKRRKIT,soluble
13,MGSDKIHHHHHHMYCNMLISLLTFISVEILYNKSNKKYGGNDMSIVQLYDITQIKSFIEHSNYESASYLYKLPQQYNEIDVLITDAIESPGVFSIKENDSIKAIILSFAYDKNKFKVIGPFVADNYVLSVDTFETLFKAMTSNQPDDAVFNFSFEEGIQQYKPLMKVIQASYNFTDYYIEARTRLEEDMHQPNIIPYHKGFYRAFSKLHTTTFKYQAQSPQDIIDSLDDHHHLFLFVSEGLLKGYLYLEIDSQQSIAEIKYFSSHVDYRLKGIAFELLAYALQYAFDNFDIRKVYFKIRNKNNKLIERFNGLGFHINYEYIKFKFESRNVKDQTIPE,not soluble
14,MAERETYADFSVVEKQRNFLTAEEFPEGPYGSPRRDDAPVENKSTPWKEGQRHYSAFNYEFKSFHQNIPRRDPAAHPPHDDPHQSEQFPYNEGE,not soluble
15,SLLIVYNEYLIHIYHSFQWAELQCETDSCIKMLLVADPQILGNTFDTKLYWPLANFDSDRHLKRTYKSVVQHAAPDVICFLGDLMDEGSVANDDQFAAYFTRFVNIFSQPTANTIMFYIPGDNDIGGEGLETIKSDRVLRFKQYFNEQDELTIDPMLRILNVNRISMTLPMNSAPSTEEPQPYTVLLSHMPILRWSDPFTYKVIDDFQPNVIFSAHEHKSRHVKTHRNQLTQGAPFEPLNTERSNRHEVVEFDLNYLKDTRELLEFIVPTCSYRMGEMKIGYGYAMFDGDKLRYTVLWTSQRFYQ,soluble
16,MSDAGGDVQVAPAAVAQGPMDKEGALRAVLRAAHHADGLAKGLHETCKALDKREAHFCVLAENCDEPQYVKLVETLCAEHQIPLIKVADKKIIGEYCGLCKYDKEGKARKVVGCSSAVVTNWGNEEQGRAILTDYFASKN,not soluble
17,MNGAELIIQEINKEAERKIEYILNEARQQAEKIKEEARRNAEAKAEWIIRRAKTQAELEKQRIIANARLEVRRKRLAIQEEIISSVLEEVKRRLETMSEDEYFESVKALLKEAIKELNEKKVRVMSNEKTLGLIASRIEEIKSELGDVSIELGETVDTMGGVIVETEDGRIRIDNTFEARMERFEGEIRSTIAKVLFG,soluble
18,MEGFSLNQDRGSMQDALKQYKHGLGTFEQKMPLMGRKFNEFTEQCFAGNSLTEREKQLIALGIAINAQDEYCMIYHTKGCLDQGASEENILEAVSVAAAFGGGAAFSQGVTVVQQCIEEFGNTTH,soluble
19,MSLRDTQTQLRNEMIYSVFVRNYSEAGNFAGVTADLQRIKDLGTDILWLLPINPIGEVNRKGTLGSPYAIKDYRGINPEYGTLADFKALTDRAHELGMKVMLDIVYNHTSPDSVLATEHPEWFYHDADGQLTNKVGDWSDVKDLDYGHHELWQYQIDTLLYWSQFVDGYRCDVAPLVPLDFWLEARKQVNAKYPETLWLAESAGSGFIEELRSQGYTGLSDSELYQAFDMTYDYDVFGDFKDYWQGRSTVERYVDLLQRQDATFPGNYVKMRFLENHDNARMMSLMHSKAEAVNNLTWIFMQRGIPLIYNGQEFLAEHQPSLFDRDTMVADRHGDVTPLIQKLVTIKQLPLLRAADYQLAVVEEGIVKITYRAAGEALTAWIPLKGQVTAVATKLAAGSYQNLLTDGPTEVVDGKLTVDGQPVLIKYVTNTAVTKVADQSNEGHHHHHH,soluble
20,MERQQQQQQQLRNLRDFLLVYNRMTELCFQRCVPSLHHRALDAEEEACLHSCAGKLIHSNHRLMAAYVQLMPALVQRRIADYEAASAVPSVAAEQPGVSPSGS,soluble
21,MGSDKIHHHHHHMKDVARDIYLSRDKIDEIKRKRFRSTLKYVYDNSPFYRRLFKESGVDIDSIKEPADIAKLPFTTKQNLRESYPLKMACVEKEKIVRIQMSGGTTGQPVIIPYTRHDVEQWKEMLLRDFYLAGITSKDVIQITPAFGLWNGGFGFHFAADAIDAFVIPIGAGNTRNQVRFMVDFGTTVLCATASYPLRIAEVAEEMGYEPAELPVQKMLLGAEPWSEEMRRQIEKTFNCKAFDIPGLTEMGGVGTVGFECPSRNGLHIWEDNYIVEIVDPETGEVLEDGEEGEIVYTSLNREAMPLIRYRSGEVSAVVSREKCECGIEHMTIKRIRGRTDDMVIYKGVKFYPSDVEQILASYGVRHYRIEVGEGIRVIFEGENGLARKVIKDIKEFLGFSPRIEVVQPGSLERFEGKAKRLFRG,not soluble
22,GPGSMVRSSSSSSAPLWKNQGGGSATAGAVASTTSPWLLRQLALAHFHNGDIQESADAFEQLLRTAPWELTNPALIFYSTALWHLKSESALGSLAQRLTDAEPLSATTLCVVANAYSLIKDPRDALVMLKRAVQVAPTLAYAHALHGYELLGQDSKAEAEAEFKAALAVDASLYIAYAGLGERFMREEQIDKARGYYKEAVKLNPTPAIVNRFALTYHRQGKSLADLKTALRLYTESLERHPNNVTARRQRADVLLRLDQPMQALEELKALLVQCPGEAVVYVTLAECMVCLRRPHEALQHYQTAMHLDPRRESYVQGCIDQLVAANML,soluble
